Source: patent publication US20170336415A1

Experiments:
fucosylated haptoglobin [1] = molecular target: fucosylated haptoglobin (UniProt P00738); assay: sandwich ELISA, 5 M urea against no urea
fucosylated haptoglobin [2] = molecular target: fucosylated haptoglobin (UniProt P00738); assay: sandwich ELISA as in Example 4, captured fHP, biotin-labeled NSL, 5 M urea
fucosylated haptoglobin [3] = molecular target: fucosylated haptoglobin (UniProt P00738); assay: sandwich ELISA, 5 M urea minus no urea
fucosylated haptoglobin [4] = molecular target: fucosylated haptoglobin (UniProt P00738); assay: sandwich ELISA as in Example 4, captured fHP, biotin-labeled NSL, no urea
fucosylated haptoglobin [5] = molecular target: fucosylated haptoglobin (UniProt P00738); assay: sandwich ELISA as in Example 4, captured fHP, biotin-labeled AML, 5 M urea
fucosylated haptoglobin [6] = molecular target: fucosylated haptoglobin (UniProt P00738); assay: sandwich ELISA as in Example 4, captured fHP, biotin-labeled AML, no urea
fucosylated haptoglobin [7] = molecular target: fucosylated haptoglobin (UniProt P00738); assay: sandwich ELISA, fHP 200 ng/mL captured by anti-haptoglobin antibody, biotin-labeled lectin 1 µg/mL, no urea
fucosylated haptoglobin [8] = molecular target: fucosylated haptoglobin (UniProt P00738); assay: sandwich ELISA, fHP 200 ng/mL captured by anti-haptoglobin antibody, biotin-labeled lectin 1 µg/mL, 5 M urea
fucosylated haptoglobin [9] = molecular target: fucosylated haptoglobin (UniProt P00738); assay: magnetic bead assay: fHP 0.45 µg/mL mixed with recombinant lectin 5 µg/mL, captured on anti-haptoglobin antibody beads, HRP anti-FLAG detection, 5 M urea
fucosylated haptoglobin [10] = molecular target: fucosylated haptoglobin (UniProt P00738); assay: magnetic bead assay: fHP 0.45 µg/mL mixed with recombinant lectin 5 µg/mL, captured on anti-haptoglobin antibody beads, HRP anti-FLAG detection, no urea
fucosylated haptoglobin [11] = molecular target: fucosylated haptoglobin (UniProt P00738); assay: magnetic bead assay, 5 M urea against no urea
fucosylated haptoglobin [12] = molecular target: fucosylated haptoglobin (UniProt P00738); assay: magnetic bead assay, 5 M urea minus no urea
fucosylated haptoglobin [13] = molecular target: fucosylated haptoglobin (UniProt P00738); assay: magnetic bead assay, signal with fHP divided by signal without fHP, no urea
fucosylated haptoglobin [14] = molecular target: fucosylated haptoglobin (UniProt P00738); assay: magnetic bead assay, signal with fHP divided by signal without fHP, 5 M urea
fucosylated haptoglobin [15] = molecular target: fucosylated haptoglobin (UniProt P00738); assay: sandwich ELISA as in Example 4, captured fHP, biotin-labeled PTL, 5 M urea
fucosylated haptoglobin [16] = molecular target: fucosylated haptoglobin (UniProt P00738); assay: sandwich ELISA as in Example 4, captured fHP, biotin-labeled PTL, no urea
fucosylated haptoglobin [17] = molecular target: fucosylated haptoglobin (UniProt P00738); assay: sandwich ELISA as in Example 4 (biotin-labeled PhoSL), captured fHP washed with detergent liquid with 5 M urea, no urea in lectin solution
fucosylated haptoglobin [18] = molecular target: fucosylated haptoglobin (UniProt P00738); assay: sandwich ELISA as in Example 4 (biotin-labeled PhoSL), captured fHP washed with detergent liquid with 1.2 M thiourea, none in lectin solution
α-fetoprotein L3 [19] = molecular target: α-fetoprotein L3 (UniProt P02771); assay: direct adsorption ELISA, 5 M urea against no urea
fucosylated haptoglobin [20] = molecular target: fucosylated haptoglobin (UniProt P00738); assay: direct adsorption ELISA, 5 M urea against no urea
fucosylated haptoglobin [21] = molecular target: fucosylated haptoglobin (UniProt P00738); assay: direct adsorption ELISA, fHP immobilized, biotin-labeled PhoSL 1 µg/mL, no urea
fucosylated haptoglobin [22] = molecular target: fucosylated haptoglobin (UniProt P00738); assay: sandwich ELISA, wash with 1.2 M thiourea minus wash without
fucosylated haptoglobin [23] = molecular target: fucosylated haptoglobin (UniProt P00738); assay: direct adsorption ELISA, fHP immobilized, biotin-labeled PhoSL, 1.2 M thiourea
fucosylated haptoglobin [24] = molecular target: fucosylated haptoglobin (UniProt P00738); assay: sandwich ELISA as in Example 4, fHP 50 ng/mL, urea 0 to 9 M
α-fetoprotein L3 [25] = molecular target: α-fetoprotein L3 (UniProt P02771); assay: direct adsorption ELISA, 5 M urea minus no urea
fucosylated haptoglobin [26] = molecular target: fucosylated haptoglobin (UniProt P00738); assay: direct adsorption ELISA, 5 M urea minus no urea
fucosylated haptoglobin [27] = molecular target: fucosylated haptoglobin (UniProt P00738); assay: sandwich ELISA as in Example 4 (biotin-labeled PhoSL), captured fHP washed with detergent liquid without urea or thiourea
α-fetoprotein L3 [28] = molecular target: α-fetoprotein L3 (UniProt P02771); assay: direct adsorption ELISA, AFP-L3 immobilized, biotin-labeled PhoSL 1 µg/mL, 5 M urea
fucosylated haptoglobin [29] = molecular target: fucosylated haptoglobin (UniProt P00738); assay: direct adsorption ELISA, fHP immobilized, biotin-labeled PhoSL, no thiourea
α-fetoprotein L3 [30] = molecular target: α-fetoprotein L3 (UniProt P02771); assay: direct adsorption ELISA, AFP-L3 immobilized, biotin-labeled PhoSL, no thiourea
fucosylated haptoglobin [31] = molecular target: fucosylated haptoglobin (UniProt P00738); assay: sandwich ELISA, wash with 5 M urea minus wash without
fucosylated haptoglobin [32] = molecular target: fucosylated haptoglobin (UniProt P00738); assay: sandwich ELISA, wash with 1.2 M thiourea against wash without
fucosylated haptoglobin [33] = molecular target: fucosylated haptoglobin (UniProt P00738); assay: direct adsorption ELISA, fHP immobilized, biotin-labeled PhoSL 1 µg/mL, 5 M urea
α-fetoprotein L3 [34] = molecular target: α-fetoprotein L3 (UniProt P02771); assay: direct adsorption ELISA, 1.2 M thiourea against no thiourea
fucosylated haptoglobin [35] = molecular target: fucosylated haptoglobin (UniProt P00738); assay: as above
fucosylated haptoglobin [36] = molecular target: fucosylated haptoglobin (UniProt P00738); assay: sandwich ELISA as in Example 4, thiourea 0 to 1.5 M
α-fetoprotein L3 [37] = molecular target: α-fetoprotein L3 (UniProt P02771); assay: direct adsorption ELISA, 1.2 M thiourea minus no thiourea
fucosylated haptoglobin [38] = molecular target: fucosylated haptoglobin (UniProt P00738); assay: as above
fucosylated haptoglobin [39] = molecular target: fucosylated haptoglobin (UniProt P00738); assay: sandwich ELISA, wash with 5 M urea against wash without
α-fetoprotein L3 [40] = molecular target: α-fetoprotein L3 (UniProt P02771); assay: direct adsorption ELISA, AFP-L3 immobilized, biotin-labeled PhoSL, 1.2 M thiourea
α-fetoprotein L3 [41] = molecular target: α-fetoprotein L3 (UniProt P02771); assay: direct adsorption ELISA, AFP-L3 immobilized, biotin-labeled PhoSL 1 µg/mL, no urea

Chain of α-fetoprotein L3 (P02771 19-609 limits assumed): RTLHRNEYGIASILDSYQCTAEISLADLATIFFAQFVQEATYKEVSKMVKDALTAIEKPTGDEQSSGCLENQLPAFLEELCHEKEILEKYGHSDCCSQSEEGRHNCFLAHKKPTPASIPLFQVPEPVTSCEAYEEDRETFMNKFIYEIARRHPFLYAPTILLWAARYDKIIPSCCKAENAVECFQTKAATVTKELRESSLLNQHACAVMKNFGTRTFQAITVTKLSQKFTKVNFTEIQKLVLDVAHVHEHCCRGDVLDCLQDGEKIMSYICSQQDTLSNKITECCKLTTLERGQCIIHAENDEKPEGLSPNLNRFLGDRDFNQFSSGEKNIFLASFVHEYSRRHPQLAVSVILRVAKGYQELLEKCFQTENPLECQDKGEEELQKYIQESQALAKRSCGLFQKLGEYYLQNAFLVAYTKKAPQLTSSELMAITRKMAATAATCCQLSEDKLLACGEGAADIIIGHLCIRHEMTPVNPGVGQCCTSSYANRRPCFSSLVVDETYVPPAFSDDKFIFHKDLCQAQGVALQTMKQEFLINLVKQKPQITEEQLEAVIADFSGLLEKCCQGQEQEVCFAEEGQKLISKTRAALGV
Chain of fucosylated haptoglobin (P00738 19-406 limits assumed): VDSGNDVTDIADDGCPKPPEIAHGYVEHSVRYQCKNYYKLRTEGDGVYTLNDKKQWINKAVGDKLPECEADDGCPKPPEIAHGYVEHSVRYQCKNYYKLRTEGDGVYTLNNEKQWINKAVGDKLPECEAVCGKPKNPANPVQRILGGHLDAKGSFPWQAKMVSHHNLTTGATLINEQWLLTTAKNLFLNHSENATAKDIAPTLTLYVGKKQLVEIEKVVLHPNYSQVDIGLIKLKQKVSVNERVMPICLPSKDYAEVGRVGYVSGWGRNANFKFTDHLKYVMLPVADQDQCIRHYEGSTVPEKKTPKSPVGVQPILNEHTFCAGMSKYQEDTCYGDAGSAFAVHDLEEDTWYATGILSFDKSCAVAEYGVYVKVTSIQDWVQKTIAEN

Naematoloma sublateritium lectin (NSL), biotin-labeled
Increased rate of signal (fucosylated haptoglobin [1]): 3.18 fold | Reaction value (S - N)urea 5M (absorbance (450 nm - 630 nm)) (fucosylated haptoglobin [2]): 1.34 | Increased amount of signal (absorbance (450 nm - 630 nm)) (fucosylated haptoglobin [3]): 0.922 | Reaction value (S - N)urea 0M (absorbance (450 nm - 630 nm)) (fucosylated haptoglobin [4]): 0.423

Amanita muscaria lectin (AML), biotin-labeled
Increased rate of signal (fucosylated haptoglobin [1]): 20.3 fold | Increased amount of signal (absorbance (450 nm - 630 nm)) (fucosylated haptoglobin [3]): 0.521 | Reaction value (S - N)urea 5M (absorbance (450 nm - 630 nm)) (fucosylated haptoglobin [5]): 0.548 | Reaction value (S - N)urea 0M (absorbance (450 nm - 630 nm)) (fucosylated haptoglobin [6]): 0.027

Biotin-labeled Aleuria aurantia lectin (from UniProt P18891 2-313)
Reaction value (S - N)urea 0M (absorbance (450 nm - 630 nm)) (fucosylated haptoglobin [7]): 0.877 | Increased rate of signal (fucosylated haptoglobin [1]): 0.88 fold | Increased amount of signal (absorbance (450 nm - 630 nm)) (fucosylated haptoglobin [3]): -0.103 | Reaction value (S - N)urea 5M (absorbance (450 nm - 630 nm)) (fucosylated haptoglobin [8]): 0.774

PhoSL peptide, biotin-labeled
Reaction value (S - N)urea 0M (absorbance (450 nm - 630 nm)) (fucosylated haptoglobin [7]): 0.162 | Increased rate of signal (fucosylated haptoglobin [1]): 1.32 fold | Increased amount of signal (absorbance (450 nm - 630 nm)) (fucosylated haptoglobin [3]): 0.052 | Reaction value (S - N)urea 5M (absorbance (450 nm - 630 nm)) (fucosylated haptoglobin [8]): 0.214

Stropharia rugosoannulata lectin (SRL), biotin-labeled
Reaction value (S - N)urea 0M (absorbance (450 nm - 630 nm)) (fucosylated haptoglobin [7]): 0.43 | Increased rate of signal (fucosylated haptoglobin [1]): 2.01 fold | Increased amount of signal (absorbance (450 nm - 630 nm)) (fucosylated haptoglobin [3]): 0.433 | Reaction value (S - N)urea 5M (absorbance (450 nm - 630 nm)) (fucosylated haptoglobin [8]): 0.863

PhoSL recombinant lectin
Reaction value (S - N)urea 5M (absorbance (450 nm - 630 nm)) (fucosylated haptoglobin [9]): 0.708 | Reaction value (S - N)urea 0M (absorbance (450 nm - 630 nm)) (fucosylated haptoglobin [10]): 0.455 | Increased rate of signal (fucosylated haptoglobin [11]): 1.56 fold | Increased amount of signal (absorbance (450 nm - 630 nm)) (fucosylated haptoglobin [12]): 0.253 | Reaction value (S/N)urea 0M (fucosylated haptoglobin [13]): 6.83 | Reaction value (S/N)urea 5M (fucosylated haptoglobin [14]): 26.3

Pholiota terrestris lectin (PTL), biotin-labeled
Reaction value (S - N)urea 5M (absorbance (450 nm - 630 nm)) (fucosylated haptoglobin [15]): 1.28 | Increased rate of signal (fucosylated haptoglobin [1]): 2.37 fold | Reaction value (S - N)urea 0M (absorbance (450 nm - 630 nm)) (fucosylated haptoglobin [16]): 0.542 | Increased amount of signal (absorbance (450 nm - 630 nm)) (fucosylated haptoglobin [3]): 0.743

Pholiota squarrosa lectin (PhoSL), biotin-labeled
Reaction value (S - N)urea 5M (absorbance (450 nm - 630 nm)) (fucosylated haptoglobin [17]): 1 | Reaction value (S - N)thiourea 1.2M (absorbance (450 nm - 630 nm)) (fucosylated haptoglobin [18]): 0.909 | Increased rate of signal (α-fetoprotein L3 [19]): 16.5 fold | Increased rate of signal (fucosylated haptoglobin [20]): 2.86 fold | Reaction value (S - N)urea 0M (absorbance (450 nm - 630 nm)) (fucosylated haptoglobin [21]): 0.253 | Reaction value (S - N)urea 0M (absorbance (450 nm - 630 nm)) (fucosylated haptoglobin [7]): 0.265 | Increased rate of signal (fucosylated haptoglobin [1]): 3 fold | Increased amount of signal (absorbance (450 nm - 630 nm)) (fucosylated haptoglobin [22]): 0.364 | Reaction value (S - N)thiourea 1.2M (absorbance (450 nm - 630 nm)) (fucosylated haptoglobin [23]): 1.04 | increased rate of the signals against no urea (fucosylated haptoglobin [24]): 1.2 to 2.8 times | Increased amount of signal (absorbance (450 nm - 630 nm)) (α-fetoprotein L3 [25]): 0.124 | Increased amount of signal (absorbance (450 nm - 630 nm)) (fucosylated haptoglobin [26]): 0.471 | Increased amount of signal (absorbance (450 nm - 630 nm)) (fucosylated haptoglobin [3]): 0.531 | Reaction value (S - N)0M (absorbance (450 nm - 630 nm)) (fucosylated haptoglobin [27]): 0.545 | Reaction value (S - N)urea 5M (absorbance (450 nm - 630 nm)) (α-fetoprotein L3 [28]): 0.132 | Reaction value (S - N)urea 5M (absorbance (450 nm - 630 nm)) (fucosylated haptoglobin [8]): 0.796 | Reaction value (S - N)thiourea 0M (absorbance (450 nm - 630 nm)) (fucosylated haptoglobin [29]): 0.36 | Reaction value (S - N)thiourea 0M (absorbance (450 nm - 630 nm)) (α-fetoprotein L3 [30]): 0.003 | Increased amount of signal (absorbance (450 nm - 630 nm)) (fucosylated haptoglobin [31]): 0.457 | Increased rate of signal (fucosylated haptoglobin [32]): 1.67 fold | Reaction value (S - N)urea 5M (absorbance (450 nm - 630 nm)) (fucosylated haptoglobin [33]): 0.724 | Increased rate of signal (α-fetoprotein L3 [34]): 39 fold | Increased rate of signal (fucosylated haptoglobin [35]): 2.89 fold | increased rate of the signals against no thiourea (fucosylated haptoglobin [36]): 1.2 to 4.1 times | Increased amount of signal (absorbance (450 nm - 630 nm)) (α-fetoprotein L3 [37]): 0.114 | Increased amount of signal (absorbance (450 nm - 630 nm)) (fucosylated haptoglobin [38]): 0.681 | Increased rate of signal (fucosylated haptoglobin [39]): 1.84 fold | Reaction value (S - N)thiourea 1.2M (absorbance (450 nm - 630 nm)) (α-fetoprotein L3 [40]): 0.117 | Reaction value (S - N)urea 0M (absorbance (450 nm - 630 nm)) (α-fetoprotein L3 [41]): 0.008
